The supplement of paper PMC11246515
± gives the standard deviation of the averaged measurements.

Experiment: total protein half-life in vivo (active degradation + dilution); higher = more stable protein
[1] = E. coli NCM3722 delta-clpP delta-lon delta-hslV, growth: N-lim chemostat, doubling time 6 h
[2] = wild type E. coli NCM3722, growth: C-lim chemostat, doubling time 3 h
[3] = wild type E. coli NCM3722, growth: C-lim chemostat, doubling time 6 h
[4] = wild type E. coli NCM3722, growth: C-lim chemostat, doubling time 12 h
[5] = wild type E. coli NCM3722, growth: P-lim chemostat, doubling time 6 h
[6] = wild type E. coli NCM3722, growth: P-lim chemostat, doubling time 12 h
[7] = E. coli NCM3722 delta-hslV, growth: N-lim chemostat, doubling time 6 h
[8] = E. coli NCM3722 delta-lon, growth: N-lim chemostat, doubling time 6 h
[9] = E. coli NCM3722 delta-smpB, growth: N-lim chemostat, doubling time 6 h
[10] = wild type E. coli NCM3722, growth: N-lim chemostat, doubling time 6 h
[11] = wild type E. coli NCM3722, growth: N-lim chemostat, doubling time 12 h
[12] = E. coli NCM3722 delta-clpP, growth: N-lim chemostat, doubling time 6 h

Sequence	total protein half-life in vivo [1]	total protein half-life in vivo [2]	total protein half-life in vivo [3]	total protein half-life in vivo [4]	total protein half-life in vivo [5]	total protein half-life in vivo [6]	total protein half-life in vivo [7]	total protein half-life in vivo [8]	total protein half-life in vivo [9]	total protein half-life in vivo [10]	total protein half-life in vivo [11]	total protein half-life in vivo [12]
MTTRLTRWLTTLDNFEAKMAQLPAVRRYGRLTRATGLVLEATGLQLPLGATCVIERQNGSETHEVESEVVGFNGQRLFLMPLEEVEGVLPGARVYAKNISAEGLQSGKQLPLGPALLGRVLDGSGKPLDGLPSPDTTETGALITPPFNPLQRTPIEHVLDTGVRPINALLTVGRGQRMGLFAGSGVGKSVLLGMMARYTRADVIVVGLIGERGREVKDFIENILGAEGRARSVVIAAPADVSPLLRMQGAAYATRIAEDFRDRGQHVLLIMDSLTRYAMAQREIALAIGEPPATKGYPPSVFAKLPALVERAGNGISGGGSITAFYTVLTEGDDQQDPIADSARAILDGHIVLSRRLAEAGHYPAIDIEASISRAMTALISEQHYARVRTFKQLLSSFQRNRDLVSVGAYAKGSDPMLDKAIALWPQLEGYLQQGIFERADWEASLQGLERIFPTVS	3.91 h	2.04 ± 0.092 h	3.72 h	4.73 ± 0.2 h								
MTTRQHSSFAIVFILGLLAMLMPLSIDMYLPALPVISAQFGVPAGSTQMTLSTYILGFALGQLIYGPMADSFGRKPVVLGGTLVFAAAAVACALANTIDQLIVMRFFHGLAAAAASVVINALMRDIYPKEEFSRMMSFVMLVTTIAPLMAPIVGGWVLVWLSWHYIFWILALAAILASAMIFFLIKETLPPERRQPFHIRTTIGNFAALFRHKRVLSYMLASGFSFAGMFSFLSAGPFVYIEINHVAPENFGYYFALNIVFLFVMTIFNSRFVRRIGALNMFRSGLWIQFIMAAWMVISALLGLGFWSLVVGVAAFVGCVSMVSSNAMAVILDEFPHMAGTASSLAGTFRFGIGAIVGALLSLATFNSAWPMIWSIAFCATSSILFCLYASRPKKR	7.89 h				6.0641 ± 0.0035 h	11.8 h						
MTTYDRNRNAITTGSRVMVSGTGHTGKILSIDTEGLTAEQIRRGKTVVVEGCEEKLAPLDLIRLGMN	4.22 ± 0.059 h	2.88 ± 0.38 h	4.16 ± 0.068 h	5.42 ± 0.38 h	4.52 ± 0.25 h	9.35 ± 0.55 h	4.25 ± 0.64 h	4.53 ± 0.13 h	4.42 ± 0.76 h	4.075 ± 0.023 h	6.36 ± 0.21 h	
MTVETQLNPTQPVNQQIYRILRRDIVHCLIAPGTPLSEKEVSVRFNVSRQPVREAFIKLAENGLIQIRPQRGSYVNKISMAQVRNGSFIRQAIECAVARRAASMITESQCYQLEQNLHQQRIAIERKQLDDFFELDDNFHQLLTQIADCQLAWDTIENLKATVDRVRYMSFDHVSPPEMLLRQHLDIFSALQKRDGDAVERAMTQHLQEISESVRQIRQENSDWFSEE [P0ACM2]	6.15 ± 0.24 h	3.42 ± 0.53 h	6.44 ± 1.2 h	10.2 ± 0.65 h	5.18 ± 0.51 h	9.7 ± 1.7 h	5.98 ± 0.4 h	5.9 ± 0.9 h	4.12 ± 1.4 h	5.71 ± 0.13 h	11.7 ± 1.3 h	7.72 h
MTVSSHRLELLSPARDAAIAREAILHGADAVYIGGPGFGARHNASNSLKDIAELVPFAHRYGAKIFVTLNTILHDDELEPAQRLITDLYQTGVDALIVQDMGILELDIPPIELHASTQCDIRTVEKAKFLSDVGFTQIVLARELNLDQIRAIHQATDATIEFFIHGALCVAYSGQCYISHAQTGRSANRGDCSQACRLPYTLKDDQGRVVSYEKHLLSMKDNDQTANLGALIDAGVRSFKIEGRYKDMSYVKNITAHYRQMLDAIIEERGDLARASSGRTEHFFVPSTEKTFHRGSTDYFVNARKGDIGAFDSPKFIGLPVGEVVKVAKDHLDVAVTEPLANGDGLNVLIKREVVGFRANTVEKTGENQYRVWPNEMPADLHKIRPHHPLNRNLDHNWQQALTKTSSERRVAVDIELGGWQEQLILTLTSEEGVSITHTLDGQFDEANNAEKAMNNLKDGLAKLGQTLYYARDVQINLPGALFVPNSLLNQFRREAADMLDAARLASYQRGSRKPVADPAPVYPQTHLSFLANVYNQKAREFYHRYGVQLIDAAYEAHEEKGEVPVMITKHCLRFAFNLCPKQAKGNIKSWKATPMQLVNGDEVLTLKFDCRPCEMHVIGKIKNHILKMPLPGSVVASVSPDELLKTLPKRKG	4.77 ± 0.49 h	1.911 ± 0.011 h	2.78 ± 0.12 h	3.03 ± 0.49 h	2.13 ± 0.32 h	3.17 ± 0.38 h	1.82 ± 0.064 h	2.74 ± 0.24 h	1.75 ± 0.024 h	2.12 ± 0.058 h	2.47 ± 0.12 h	0.895 h
MTVTRPRAERGAFPPGTEHYGRSLLGAPLIWFPAPAASRESGLILAGTHGDENSSVVTLSCALRTLTPSLRRHHVVLCVNPDGCQLGLRANANGVDLNRNFPAANWKEGETVYRWNSAAEERDVVLLTGDKPGSEPETQALCQLIHRIQPAWVVSFHDPLACIEDPRHSELGEWLAQAFELPLVTSVGYETPGSFGSWCADLNLHCITAEFPPISSDEASEKYLFAMANLLRWHPKDAIRPS [P0ACV6]	4.35 ± 0.052 h	3.03 ± 0.27 h	4.71 ± 0.84 h	9.23 ± 0.26 h	4.71 ± 0.42 h	10.7 ± 0.85 h	3.78 ± 0.16 h	4.19 ± 0.46 h	3.94 ± 0.21 h	3.66 ± 0.29 h	6.85 ± 0.2 h	4.17 ± 0.28 h
